We go through eight substances from US20110104179A1.

Holding throughout (assay): cell-based or functional assay
The target of assay [1] is Arg- and Lys-specific proteinases of P. gingivalis ATCC 33277 whole cells (DQ BSA assay) (Porphyromonas gingivalis ATCC 33277).
The target of assay [2] is Arg-gingipains of P. gingivalis ATCC 33277 whole cells (Porphyromonas gingivalis ATCC 33277).
Assay [3] has as its target Lys-gingipain (Kgp) of P. gingivalis ATCC 33277 whole cells (Porphyromonas gingivalis ATCC 33277) (UniProt B2RLK2).

For “Non-glycosylated κ-casein(106-169) (from UniProt P02668 127-190) (peptide)”, in assay [1], the inhibition of proteinase activity against fluorescent BSA (DQ Green BSA), whole ATCC 33277 cells, peptide 500 µM is 60 % inhibition.

As for αS1-casein(11-23) (peptide), in assay [2], the Activity with ATCC33277, Arg-gingipains, peptide 100 µM alone (no inhibitor 29.23 + 0.06) came to 18; the Protease activity (%), Arg assay, ATCC 33277 whole cell, peptide 100 µM worked out at 62%; the Protease activity (%), Arg assay, ATCC 33277 whole cell, peptide 200 µM is 39%; the Protease activity (%), Arg assay, ATCC 33277 whole cell, peptide 300 µM was 38%. Moreover, in assay [2], the inhibition of Arg-specific proteolytic activity, whole cells, peptide 100 µM alone was 40 % inhibition; the inhibition of Arg-specific proteolytic activity, whole cells, peptide and ZnCl2 in a 1:4 ratio came out at 70 % inhibition. Besides, in assay [3], the Protease activity (%), Lys assay, ATCC 33277 whole cell, peptide 100 µM amounted to 64%; the Protease activity (%), Lys assay, ATCC 33277 whole cell, peptide 200 µM amounted to 43%; the Protease activity (%), Lys assay, ATCC 33277 whole cell, peptide 300 µM was 34%; the inhibition in the Lys-specific protease assays, whole cells, inhibitor mixture with ZnCl2 is 85 % inhibition.

Substance β-casein(193-205) (peptide) returned an inhibition of whole cell Arg-specific proteolytic activity, peptide 200 µM in assay [2] of 15 % inhibition.

In the case of β-casein(193-209) (peptide), in assay [2], the Activity with ATCC33277, Arg-gingipains, peptide 100 µM alone (no inhibitor 29.23 + 0.06) came out at 20; the Protease activity (%), Arg assay, ATCC 33277 whole cell, peptide 100 µM worked out at 69%; the Protease activity (%), Arg assay, ATCC 33277 whole cell, peptide 200 µM is 50%; the Protease activity (%), Arg assay, ATCC 33277 whole cell, peptide 300 µM was 50%. In assay [2], the inhibition of Arg-specific proteolytic activity, whole cells, peptide 100 µM alone stood at 30 % inhibition; the inhibition of Arg-specific proteolytic activity, whole cells, peptide and ZnCl2 in a 1:4 ratio was 70 % inhibition. In addition, in assay [3], the Protease activity (%), Lys assay, ATCC 33277 whole cell, peptide 100 µM turned out to be 71%; the Protease activity (%), Lys assay, ATCC 33277 whole cell, peptide 200 µM amounted to 59%; the Protease activity (%), Lys assay, ATCC 33277 whole cell, peptide 300 µM amounted to 49%; the inhibition in the Lys-specific protease assays, whole cells, peptide: ZnCl2 mixture was 90 % inhibition.

“κ-casein(106-137) (from UniProt P02668 127-158) (peptide)”: the inhibition of protease activity in the fluorescence assay (DQ Green BSA), whole ATCC 33277 cells, peptide 500 µM in assay [1] amounted to 37 % inhibition.

For the substance “κ-casein(109-137) (peptide; modification not given)”, in assay [2], the Protease activity (%), Arg assay, ATCC 33277 whole cell, peptide 50 µM is 84% and the Protease activity (%), Arg assay, ATCC 33277 whole cell, peptide 100 µM turned out to be 36%.

In assay [2], κ-casein(117-123) (peptide) displayed an Arg-Specific Activity (%), ATCC 33277 whole cells, BApNA, peptide 200 µM of 111%; an Arg-Specific Activity (%), ATCC 33277 whole cells, BApNA, peptide 500 µM of 90%; an Arg-Specific Activity (%), ATCC 33277 whole cells, BApNA, peptide 1000 µM of 92%.

In assay [2], κ-casein(127-137) (peptide) displayed an Arg-Specific Activity (%), ATCC 33277 whole cells, BApNA, peptide 200 µM of 102%; an Arg-Specific Activity (%), ATCC 33277 whole cells, BApNA, peptide 500 µM of 97%; an Arg-Specific Activity (%), ATCC 33277 whole cells, BApNA, peptide 1000 µM of 82%.
